Source: the nanobody polyreactivity screen of Harvey et al. (2022)

Assay: yeast display, Sf9 membrane polyspecificity reagent, FACS + sequencing; frameworks hold sequencing errors
Method in brief: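 Galactose-induced (36–48 hours) yeast carrying a synthetic nanobody display library were exposed to 10% biotinylated, detergent-solubilized Sf9 membrane reagent at 4 °C for 1 hour. FACS followed streptavidin microbead enrichment, using low and high (top ~1%) gates for expression (anti-HA) and reagent binding (streptavidin). Colony PCR, MiSeq 2 × 250 sequencing and CDR-length filtering followed. Labels for polyreactivity reflect the gate of origin.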

In the case of “QVQLVESGGGLVQAGGSLRLSCAASGRIFYYNAMGWYRQAPGKERELVASITGSGGSTYYADSVKGRFTISRDNAKNTVYLQMNSLKPEDTAVYYCANREYLYPYYYVAKYDYWGQGTQVTVSS”, the “polyreactivity (PSR sort gate)” value is reported as “low polyreactivity”.
In the case of “QVQLVESGGGLVQAGGSLRLSCAASGRIFYTYAMGWYRQAPGKERELVAVISSGGSTNYADSVKGRFTISRDNAKNTVYLQMNSLKPEDTAVYYCAAYGTKWGRGFYITGYGYWGQGTQVTVSS”, the “polyreactivity (PSR sort gate)” value is reported as “low polyreactivity”.
With “QVQLVESGGGLVQAGGSLRLSCAASGSIFRVNDMGWYRQAPGKERELVAAISSNGDDTFYADSVKGRFTISRDNSKNTVYLQMNSLKPEDTAVYYCNAESPTYPDYFFKYTHYDYWGQGTQVTVSS” the “polyreactivity (PSR sort gate)” value was “low polyreactivity”.
For “QVQLVESGGGLVQAGGSLRLSCAASGSIFWRNAMGWYRQAPGKERELVAAISGNGGTTYYADSVKGRFTISRDNAKNTVYLQMNSLKPEDTAVYYCAKVGKTYRTYEYWGQGTQVTVSS”, the “polyreactivity (PSR sort gate)” value was “high polyreactivity”.
For “QVQLVESGRGLVQAGGSLRLSCAVSGSIGVYAMGWYRQAPGKERELVAAISKRGGSTRYADSVKGRFTISRDNAKNTVYLQMNSLKPEDTAVYYCAATGSVTGPRYAYDYWGQGTQVTVSS”, the “polyreactivity (PSR sort gate)” value was “high polyreactivity”.
With “QVQLVESGGGLVQAGGSLRLSCAASGRTFNSYAMGWYRQAPGKEREFVASITFSTGRTYYADSVKGRFTISRDNAKNTVYLQMNSLKPEDTAVYYCNVRFVTGYRYRYGDDYWGQGTQVTVSS” the “polyreactivity (PSR sort gate)” value was “low polyreactivity”.
For “QVQLVESGGGLVQAGGSLRLSCAASGRTIRYYAMGWYRQAPGKERELVAAITVTVTSTFYADSVKGRFTISRDDAKNTVYLQMNSLKPEDTAVYYCAKVDRQSPGQYYYWGQGSQVTVSS”, the “polyreactivity (PSR sort gate)” value was “low polyreactivity”.
In the case of “QVQLVESGGGLVQSGGSLRLSCAASGSTFVSNAMGWYRQAPGKERELVAAINGSGGITYYADSVKGRFTISRDNAKNTVYLQMNSLKPEDTAVYYCAAEYDGPSTWVDYYYHYGYWGQGTQVTVSS”, the “polyreactivity (PSR sort gate)” value is reported as “low polyreactivity”.
In the case of “QVQLVESGGGLVQAGGSLRLSCAASGSTFWYYAMGWYRQAPGKERELVAAITSSGSTYYADSVKGRFTISRDNAKNTVYLQMNSLKPEDTAVYYCAAEQWYGYASYDYWGQVTQVTVSS”, the “polyreactivity (PSR sort gate)” value is reported as “high polyreactivity”.
In the case of “QDQLVESGGGLVQAGGSLRLSCAASGFTFVRYAMVWYRQAPGKERELVAAISSSGGSTYYADSVKGRFTISRDNAKNTVYLQMNSLKPEDTAVYYCADGPFYRFTDGRYKSLDYCGQGTQVTVSS”, the “polyreactivity (PSR sort gate)” value is reported as “high polyreactivity”.
With “QVHLVESGGGLVQAGGSLRLSCPASGSTIRNYAMGLYRQAPGKERELVAAITKRGGTTYYADSVKGRFTISRDNAKNTVYLQMNSLKPEDTAVYYCAIGYNSSPFDYWGQGTQVTVSS” the “polyreactivity (PSR sort gate)” value was “high polyreactivity”.
With “QVQLVESGGGLVQAGGSLRLSCAASGRIFPPNAMGWYRQAPGKERELVAAITRGGSTNYADSVKGRFTISRDNAKNTVYLQMNSLKPEDTAVYYCAARGLRRQAPFYYWGQGTQVTVSS” the “polyreactivity (PSR sort gate)” value was “high polyreactivity”.
With “QVQLVESGGGLVQAGGSLRLSCAASGITFQGYTMGWYRQAPGKEWELVAAISSNGGRTYYADSVKGRFTISRDNAKNTVYLQMNSLKPEDTAVYYCAARSFWTYRSGGPSDYYYWGQGTQVTVSS” the “polyreactivity (PSR sort gate)” value was “high polyreactivity”.
With “QVHLVESGGGLVQAGGSLRLSCAASGSIFYWNAMGWYRQAPGKESELVATISSRGGRTSYADSVKGRFTLSRDNAKNTVYLQMNSLQPEDTAVDYCAKSIDGWYWRRRRYDYWGQGTQVTVSS” the “polyreactivity (PSR sort gate)” value was “low polyreactivity”.
In the case of “QVQLVESGGGLFQAGGSLRLSCAASGFIFTGYAMGWYRQAPGKASELVAVISYSAGSTYYADSVKGRFTISRDNAKNTVYLQMNSLKPEDTAVYYCAADHGKNLTYDYWGQGTQVTVSS”, the “polyreactivity (PSR sort gate)” value is reported as “high polyreactivity”.
For “QVQLVESGGGLVQAGGSLRLSCAASGRTFARYALGWYRQAPGKERELVAAISWSGGSTYYADSVKGRFTISRDNAKNTVYLQMNSLKPEDTAVDYCAAGYGARSAKFDVYGTNEGDYWGQGTQVTVSS”, the “polyreactivity (PSR sort gate)” value was “high polyreactivity”.
In the case of “QVQLVESGGGLVQAGGSLRLSCAASGLIIWYYAMGWYRQAPGKERELVAAISRSGGRTYYADSVKGRFTISRDNAKNTVYLQMNSLKPEDTAVNYCNADVYRGYDYWGQGTQVTVSS”, the “polyreactivity (PSR sort gate)” value is reported as “high polyreactivity”.
For “QVQLVESGGGLVQAGGSLRLSCAASGRTFYRYAMGWYRQAPGKEREFVAAISRCGGSTYYADSVKGRFTISRDNAKNTVFLQMNRLKPEDTGVYYCNADTRAGGFYTPYGRDYWGQGSQVTVSS”, the “polyreactivity (PSR sort gate)” value was “high polyreactivity”.
For “QVQLVESGGGLVQAGGSLRLSCAASVRTFTPYAMGWYRQAPGKEREFVAAISIVGRKKYADSVKGRFTISRDNAKNTVYLQMNSLKPEDTEVYYCNAQDSRDRKFYWGYTRGHWGLGTQVTVSS”, the “polyreactivity (PSR sort gate)” value was “low polyreactivity”.
For “QVQLEESGGRLVQAGCSLRLSCAASGRTFDYYAMGWYRQAPGKEWELVAAITASGGSTFYADSVKGRFTISRDNAKNTVYLQMYSMKPEDTAVYYCAGRYTWRYFIKYGYWGQGTQVTVSS”, the “polyreactivity (PSR sort gate)” value was “high polyreactivity”.
In the case of “QVQLVESGGGLVQEGGSLRLSCAASGRIFWSYAMGWYRQAPGKERELVAAITWRTGRTYYADSVKGRFTISRDNAKNTVYLQMNSLKPEDTAVYYCAAEGYLGGQSYNGLNYDSWGQGTQVTVSS”, the “polyreactivity (PSR sort gate)” value is reported as “low polyreactivity”.
In the case of “QVQLVESGGGLVQAGGSLRLSCAASGLIFYDNMGWYRQAPGKERELVAAISSSGGSTSYADSVKGRFTISRDNAKNTVYLQMNSLKPVDTAVYYCAADSYPAYLGFVGFDYWGQGTQVTVSS”, the “polyreactivity (PSR sort gate)” value is reported as “low polyreactivity”.
With “QVQLVESGGGLVQAGGSLRLSCAASGSIFGSYAMGWYRQAPGKERSTYYADSVKGRFTISRDNAKNTVYLQMNSLKPEDTAVYYCAADTYGYQGSAGGHWGQGTQVTVSS” the “polyreactivity (PSR sort gate)” value was “low polyreactivity”.
With “QDQHVESGGGLVQAGGSLRLSCAASGRTFVFYAMGWYRQAPGKERELLAVIRVIGGSTKYADSVKGRFTISRDNAKNTVYLQMNSLKPVDTAVYYCAADGVVVVAAYMYYWGQGTQVTVSS” the “polyreactivity (PSR sort gate)” value was “low polyreactivity”.
In the case of “QVQLVESGGGLVQAGGSLRLSCAASGFTFIYYAMGWSRQAPGKERELVAAIRWSGGSTYYADSVKGRFTISRDNAKNTVYLQMNSLNPEDTAVYYCAKGGPHRGTGLNDYWGQGTQVTVSS”, the “polyreactivity (PSR sort gate)” value is reported as “high polyreactivity”.
With “QVQLLESGGGLVQAGGSLRLSCAASGSIFTEYAMGWYRQAPGKERELVAAITYSGGSTYYADSVKGRFTISRDNAKNTVYLQMHSLKPDDTAVYYCNADYRIYVAYYYWGQGTQVTVSS” the “polyreactivity (PSR sort gate)” value was “low polyreactivity”.
In the case of “QVQLVESGGGLVQAGGSLRLSCAASGSIFDTYAMGWYRQAPGKERELVAAITWSGSSTYYADSVKGRFTISRDNAKNTVYLQMNSLKPEDTAVYYCAKDYYVEVTTEYDYWGQGTQVTVSS”, the “polyreactivity (PSR sort gate)” value is reported as “high polyreactivity”.
For “QVQLVESGGGLVQAGGSLRLSCAASVSIFYHYAMGWYRQAPGKESELVAAIDRTGGSTYYADSVKGRFTISRDNAKNTVYLQMNSLKPEDTAVYYCDADWDYADYYGFQYDYWGQGTQVTVSS”, the “polyreactivity (PSR sort gate)” value was “low polyreactivity”.
For “QVQLVESGGGLVQAGGSLRLSCAASGITFYRYAMGWSRQAPGKERELVAAITWSGGSTYYADSVKGRFTISRDNAKNTVYLQMNSLKPEDTAVYYCAAVLYSPDFFGNYDYWGQGTQVTVSS”, the “polyreactivity (PSR sort gate)” value was “low polyreactivity”.
For “QVQHVESGGGLVQAGGTLRLSCASSGRTLYYYTMGWYRQAPGKESELVAAISKSGGSTYYADSVKGRFTISRDNAKNTVYLQMNSLKPEDTAVFYCAADRSAYSRGYVRYIYWGQGTKVTVSS”, the “polyreactivity (PSR sort gate)” value was “high polyreactivity”.
For “QVQLVESGGGLVQAGGSLRLSCAASGSIFLWNAMGWYRQAPGKERELVAAISSGTSTNYADSVKGRFTISRDNANNTVYLQMNSLKPEDTAVYYCAARGRKNQRRYGYWGQGTQVTVSS”, the “polyreactivity (PSR sort gate)” value was “low polyreactivity”.
In the case of “QVQLVESGGGLVQAGGSLRLSCSASGSTFGRNSMGRYRQAPGKEREVVAAISWRSTRTYYADSVKGRFTISRDHAKNTVDLQMNSLKPEDNAGYYCAVYYFYPSTNCYHYDYWGQGTQVTVSS”, the “polyreactivity (PSR sort gate)” value is reported as “high polyreactivity”.
In the case of “QVQLVESGGGLDQAGGSLRLSCAASGRTFPYYAMGWYRQAPGKERELVAAISSSGGRTYYADSVKGRFTISRDNAKNTVYLQMNSLKPEDTAVYYCNVDAWYPYQGFLVGYYYWGQGTQVTVSS”, the “polyreactivity (PSR sort gate)” value is reported as “low polyreactivity”.
With “QVQLVESGGGLVQAGGSLRLSCAASGRTSARYGMGWYRQAPGKERELVASIRRSGDSTYYADSVKGRFTISRDNAKNTVYLQMNSLKPEDTAVYYCAAGGKQGKRDYWGQGTQVTVSS” the “polyreactivity (PSR sort gate)” value was “low polyreactivity”.
For “QVQLVESGGGLVQAGGSLRLSCAASGILSLYTMGCSIQAPGKERELVAAISFRGGNTYYADSVKGRFTISRDNAKNTVYLQMNSLKPEDTAVYYCNAVTRPWRRGYDYWGQGTQVTVSS”, the “polyreactivity (PSR sort gate)” value was “high polyreactivity”.
In the case of “QVQLVESGGGLVQAGGSLRLSCAASGGIFQENAMGWYRPAPGKERELVATITRSTGSTYYADSVKGRFTISRDNAKNTVYLQMNSLKPEDTAVYYCAARRRSQYYRYAYKYDYWGQGTQVTVSS”, the “polyreactivity (PSR sort gate)” value is reported as “high polyreactivity”.
For “QVQLVESGGGLVQAGGSLRLICAASGSIFGYNAMGWYRQAPGKERELVAVINASGASTYYADSVKGRFTISRDNAKNTVYLQMNSLKPEDTAVYYCAKDPFPFPGGDYWGHGTQVTVSS”, the “polyreactivity (PSR sort gate)” value was “low polyreactivity”.
With “QVHLVESGGGLVQAGVSLRLSCAASGRTVVNAMGWYRQAPGKERELVAAISSNGGRTYYADSVKGRFTISRDNAKHSVYLQMNSLKPEDTAVYYCAAYNTHRYDYWGQGTQVTVSS” the “polyreactivity (PSR sort gate)” value was “high polyreactivity”.
With “QVQLVESGGGLVQAGGSLRLSCGASGRTFFWYDMGWYRQAPGKERELVAAISSSTRTKYADSVKGRFTISRDNAKNTVYLQMNSLKPEDSAVSYCAATSDYYHYWYYSSVRRFDYWGQGTQVTVSS” the “polyreactivity (PSR sort gate)” value was “high polyreactivity”.
For “QVQLVESGGGLVQAGGSLRLSCAASGRIFSTYAMGWYRQAPGKERELVAAISYSGTTTYYADSVKGRFTISRDNAKNTVYLQLNRLKPEDTAVYYCAAYRYSSWAYGRDYYWGQGTQVTVSS”, the “polyreactivity (PSR sort gate)” value was “high polyreactivity”.
For “QVQLVESGGGLLQAGGSLRLSCAASGGTFERNAMGWYRQAPGKERELVAAISISGGRTYYADSVKGRFTISRDNAKNTVYLQMKSLKPEDTAVYFCAAGVGSRIKQVGNDYWGQGTQVTVSS”, the “polyreactivity (PSR sort gate)” value was “high polyreactivity”.
With “QVQLVESGGCLVQAGGSLRLSCAASGSIFRYYAMGWYRQAPGKDRELVAAISWSSGRTYYADSVKGRFTISRDNAKNTVYLQMNSLKPEDTAVYYCAAGVPGYPRYEYDYWGQGTQVTVSS” the “polyreactivity (PSR sort gate)” value was “high polyreactivity”.
With “QVQLVESGGGLVQAGGSLRLSCAASGRIFDLNAMGWYRQAPGKERELVAAITWSGDSTYYADSVKGRFTISRDNAKNTVYLQMNSLNPEDTAVYYCAAASRTSYSWVDYEFDYWGQGTQVTVSS” the “polyreactivity (PSR sort gate)” value was “low polyreactivity”.
